Measurements taken from US8513197B2, “Ganglioside epitopes for treating Guillain-Barre syndrome” (Georgia Regents University, priority 2009, dated 2013).
Read-outs that look alike come from different tables or passages of the source. No end group written: not given here.

Key:
mAb R24 = assay: Competitive inhibition ELISA: binding of mAb R24 to GD3-coated plate
Experimental: Subsequently, an aliquot (100 μl) was added to each well, and each well of the ELISA plate was coated with 0.1 μg GD3. The remaining binding activity of mAb R24 was determined by ELISA. Values are means±SD, n=6 individual experiments. […] The experiment at each dose was performed on three rats, and values are means±SD.
(§1) Antiganglioside antibody activity was evaluated for GM1, GM2, GD1a, GD1b, GT1b, GQ1b, GD3, and LOSGD3 by conventional ELISA method (Usuki et al., 2005. J Neurol Sci 232: 37-44). […] Before the ELISA plate assay, each well was treated with 1% BSA/PBS solution. […] After incubation, the reaction mixture was passed through a 0.22-μm syringe filter (Millipore Corp., Bedford, Mass.). Subsequently, 100 μl of the mixture was added to each well and incubated for 1 hr at room temperature. To each of the wells, a secondary antibody (horseradish peroxidase-conjugated anti-mouse IgG, 1:5,000 dilution in 1% BSA/PBS solution) was added and incubated for 1 hr at room temperature. Finally, the bound secondary antibody was visualized by addition of a color-generating reagent (OPD Peroxidase Substrate). The absorbance was measured at 492 nm with a microplate spectrophotometer (Bio-Rad, Hemel Hempstead, United Kingdom). The nomenclature of gangliosides is based on that of Svennerholm (Svennerholm, 1964. J Lipid Res 5: 145-155).
FIG. 8 illustrates the effect of GD3-like peptides on binding of R24 mAb to GD3 by ELISA. Each of the GD3-peptide mimics in solution (PGD3-1, PGD3-2, PGD3-3, PGD3-4, PGD3-5, or PGD3-6) was incubated with R24 mAb for 30 min at room temperature at various concentrations as indicated in the horizontal axis. An aliquot of the mixtures (100 μL), was added to each well of an ELISA plate coated with 0.1 μg of GD3. The remaining binding activity of R24 mAb was measured by ELISA. Values are mean±SEM, n=6 individual experiments.
(§2) Anti-ganglioside antibody activity was evaluated for GM1, GM2, GD1a, GD1b, GT1b, GQ1b, GD3, and LOSGD3 by conventional ELISA as previously described (Usuki et al., 2005. J. Neurol. Sci. 232:37-44). To measure half-maximal inhibitory concentrations (IC50s) of GD3-like peptides for binding of GD3 to mAb R24, each well of the ELISA plate (Immunlon 1B, Lab System, Franklin, Mass., USA) was coated with 0.1 μg of GD3, and prior to ELISA assay was treated by 1% BSA/PBS solution. The purified mAb R24 IgG (10 μg/mL by 1% BSA/PBS solution) was incubated with various concentrations of GD3-like peptides (PGD3-1, PGD3-2, PGD3-3, PGD3-4, PGD3-5, and PGD3-6) for 30 min. After incubation, the reaction mixture was passed through a 0.22-μm syringe filter (Millipore Corp., Bedford, Mass., USA), and 100 μL of the mixture was added to each well and incubated for 1 h at room temperature. A secondary antibody (horseradish peroxidase-conjugated anti-mouse IgG, 1:5000 dilution in 1% BSA/PBS solution) was applied, incubated for 1 h at room temperature, and visualized by addition of a color-generating reagent (OPD Peroxidase Substrate). The absorbance was measured at 492 nm with a microplate spectrophotometer (BioRad, Hemel Hempstead, UK).

[1] = test system: anti-GD3 antibody and anti-LOSGD3 antibody; assay: Time course of serum anti-GD3 and anti-LOSGD3 antibody (ELISA) in immunized rats; type: in vivo, Lewis rats; conditions: peptide 1000 nmol/kg i.p. daily, from weeks 8, 11 and 14
Experimental: as §1
as §2, with “A secondary antibody (horseradish peroxidase-conjugated anti-mouse IgG, 1:5000 dilution in 1% BSA/PBS solution) was applied, incubated for 1 h at room temperature, and visualized by addition of a color-generating reagent (OPD Peroxidase Substrate).” left out

LOSGD3-sensitized rats [2] = assay: Rotarod motor test; conditions: LOSGD3/peptide group vs LOSGD3 treatment group, week 17
Experimental: Twelve-week-old female Lewis rats weighing 200-250 g were used. One hundred micrograms LOSGD3 was dissolved in 50 mM PBS buffer with a vehicle of 0.05 ml keyhole limpet hemocyanin (KLH; 2 mg/ml) and emulsified with an equal volume of complete Freund's adjuvant (CFA). Rats were given a single subcutaneous injection of 0.1 ml inoculum (or vehicle) into the shoulders and the footpads of the hind limbs. In addition, booster injections were administered similarly to injections in LOSGD3 (or vehicle)-treated animals at 2-week intervals with 100 μg LOSGD3 (or no additive) and 2 mg/ml KLH in PBS emulsified with an equal volume of incomplete Freund's adjuvant (ICFA) 6 weeks thereafter. Sixteen experimental animals were divided into four groups (n=4 each): 1) LOSGD3, 2) LOSGD3/BEC2, 3) vehicle, and 4) vehicle/BEC2. The remaining animals were included as the untreated control group (n=4). As shown in the third and fourth stepladders of FIG. 2, BEC2 (5 mg kg^−1) was administered to rats once per week from 8 to 15 weeks.
A rat was placed on a rotating roller (4 cm in diameter), and the time for which the rat remained on the roller was measured. The test included eight trials; each trial was performed at an interval of 10 min; four trials were performed. An additional four trials were conducted after 24 hr. When the rat could stay on the rotating rod at a constant speed of 5 rpm for a cumulative duration of at least 2 sec, the rotation speed was increased by 0.2 rpm/sec.
Twelve-week-old female Lewis rats, weighing 200-220 g each, were used. One hundred micrograms of LOSGD3 was dissolved in 50 mM PBS buffer as vehicle, and with 0.05 mL of keyhole limpet hemocyanin (2 mg/mL) emulsified with an equal volume of complete Freund's adjuvant. A single subcutaneous injection of 0.1 mL of inoculum (or vehicle) was made into the rats' shoulders and hind limb footpads. […]

LOSGD3-sensitized rats [3] = assay: Nerve conduction velocity (NCV) in rat tail nerve; conditions: LOSGD3/peptide-treated groups, week 16
Experimental: Twelve-week-old female Lewis rats, weighing 200-220 g each, were used. One hundred micrograms of LOSGD3 was dissolved in 50 mM PBS buffer as vehicle, and with 0.05 mL of keyhole limpet hemocyanin (2 mg/mL) emulsified with an equal volume of complete Freund's adjuvant. A single subcutaneous injection of 0.1 mL of inoculum (or vehicle) was made into the rats' shoulders and hind limb footpads. Additional booster injections were administered similarly to LOSGD3- (or vehicle-) treated animals at 2-week intervals with 100 μg of LOSGD3 (or no additive) and 2 mg/mL of keyhole limpet hemocyanin in PBS emulsified with an equal volume of incomplete Freund's adjuvant after 6 weeks. Forty-four experimental animals were grouped into 10 treatment paradigms (n=4 each): (i) LOSGD3, (ii) LOSGD3/PGD3-3, (iii) LOSGD3/PGD3-4, (iv) LOSGD3/PGD3-5, (v) LOSGD3/PGD3-6, (vi) vehicle, (vii) vehicle/PGD3-3, (viii) vehicle/PGD3-4, (ix) vehicle/PGD3-5, and (x) LOSGD3/PGD3-6. The remaining four animals were the untreated control group (n=4). […]
NCVs (m/s) were measured in the rat tail nerve using a Nicolet VikingQuest EMG machine (NeuroCare Group, Madison, Wis., USA) according to the method described previously (Usuki et al., 2006. J. Neurosci. Res. 83:274-284).

[4] = Pharmacokinetic study of bPGD3-4 after i.p. single dose (streptavidin-coated ELISA of plasma); conditions: for tmax: normal Lewis rats
Experimental: Briefly, the plasma samples from the single-dose administration of bPGD3-4 were applied to the streptavidin-coated ELISA plates at serial double dilutions in 1% bovine serum albumin/phosphate buffered-saline (BSA/PBS) solution. […] After washing with 1% BSA/PBS buffer, each well was treated with an anti-mouse IgG horseradish peroxidase-conjugated antibody (Jackson ImmunoResearch Lab, West Grove, Pa., USA). This secondary antibody was pre-treated with rat IgG to eliminate contamination from any anti-rat IgG binding activity. Finally, the bound secondary antibody was visualized by a color-generating reagent (OPD Peroxidase Substrate in PBS; Sigma, St Louis, Mo., USA). Half-saturation absorbance values for plasma samples were estimated by serial plasma dilution curves of ELISA. The absorbances were then converted into values of plasma concentration using a standard serial dilution curve of rat serum containing authentic bPGD3-4.
A Micro-Renathane polyurethane cannula, 0.84 mm o.d.×0.36 mm i.d., (Braintree Scientific Inc., Braintree, Mass.) was inserted before dosing into the femoral vein of a female Lewis rat (n=9; body weight=200±20 g). […] Blood samples were centrifuged at room temperature and the plasma harvested. The plasma samples were stored at −60° C. to −80° C. until analyzed by a streptavidin-coated ELISA plate for determining the total concentration of bPGD3-4.
The following parameters were calculated: maximum-, minimum-, and average-observed plasma concentration (Cmax, Cmin, and Cav), areas under the plasma concentration-time curve from zero to infinite time (AUC) plasma clearance (CL), distribution half-life (t1/2α), and elimination half-life (t1/2β).

[5] = as restated in Example 12, read-out: IC50 values for the active peptides
[6] = simulated, 1,000 nmol kg^−1 i.p. at 24-hourly intervals for 7 days
[7] = i.p. single dose 100.0 nmol kg^−1, mean (SD)
[8] = i.p. single dose 500.0 nmol kg^−1, mean (SD)
[9] = i.p. single dose 1000.0 nmol kg^−1, mean (SD)

With ACTPYAMLPGCK [PGD3-5] the “inhibitory activity on GD3 reactivity to mAb R24” value (shortened to “inhibitory activity”) (mAb R24; ELISA) was “remarkable inhibitory activities”, the IC50 (mAb R24; [5]) was 100 nM and the IC50 (mAb R24; read-out: IC50, competitive inhibition of GD3 reactivity to mAb R24, ELISA, 0.1 μg GD3 per well, as printed in Example 11) was 100 nM. For the same substance, the “effect on serum anti-GD3 / anti-LOSGD3 antibody level” value [1] was “effective in suppressing serum anti-GD3 antibody activity”, the “rotarod retention time / motor performance” value (LOSGD3-sensitized rats [2]) was “did not show any statistically significant differences” and the “effect on NCV” value (LOSGD3-sensitized rats [3]) was “less attenuation of NCV”.

For GLAPPDYAERFFLIS [PGD3-3], the “inhibitory activity” value (mAb R24; ELISA) was “remarkable inhibitory activities”, the IC50 (mAb R24; [5]) was 300 nM and the “effect on serum anti-GD3 / anti-LOSGD3 antibody level” value [1] was “no suppression of either anti-LOSGD3 or anti-GD3 antibodies”. The “rotarod retention time / motor performance” value (LOSGD3-sensitized rats [2]) was “did not show any statistically significant differences”.

In the case of “LAPPRPRSELVFLSV [PGD3-1, GD3-like peptide]”, the “inhibitory activity” value (mAb R24; ELISA) is reported as “little or no inhibitory activity”.

For “PHFDSLLYPCELLGC [PGD3-2, GD3-like peptide]”, the “inhibitory activity” value (mAb R24; ELISA) was “little or no inhibitory activity”.

For RHAYRSMAEWGFLYS [PGD3-4], the Cmax ([4]; read-out: Cmax, chronic simulation, simulated, 1,000 nmol kg^−1 i.p. at 24-hourly intervals for 7 days) was 670 µM, the “Cav, chronic simulation” value [4, 6] was 340 µM and the “Cmin, chronic simulation” value [4, 6] was 0.33 µM.

In the case of SVAVPPPADDPSWRY [PGD3-6], the “inhibitory activity” value (mAb R24; ELISA) is reported as “remarkable inhibitory activities”, the IC50 (mAb R24; [5]) is reported as 250 nM and the “effect on serum anti-GD3 / anti-LOSGD3 antibody level” value [1] is reported as “no suppression of either anti-LOSGD3 or anti-GD3 antibodies”. The “rotarod retention time / motor performance” value (LOSGD3-sensitized rats [2]) was “did not show any statistically significant differences”.

For “bPGD3-4: biotinylated product of GD3-like peptide PGD3-4 (RHAYRSMAEWGFLYS; also: biotinylated, site not given here)”, the “AUC (zero to infinite time)” value [4, 7] was 130.0 (43.6) nmol mL^−1 hr, the “CL (plasma clearance)” value [4, 7] was 0.82 (0.24) mL hr^−1 and the Cmax [4, 7] was 70.8 µM. For the same substance, the “t1/2α (distribution half-life)” value [4, 7] was 0.48 (0.03) hr, the “t1/2β (elimination half-life)” value [4, 7] was 2.45 (0.27) hr and the “AUC (zero to infinite time)” value [4, 8] was 589.2 (72.9) nmol mL^−1 hr. For the same substance, the “CL (plasma clearance)” value [4, 8] was 0.86 (0.11) mL hr^−1, the Cmax [4, 8] was 267 µM and the “t1/2α (distribution half-life)” value [4, 8] was 0.42 (0.03) hr. The “t1/2β (elimination half-life)” value [4, 8] was 2.45 (0.33) hr, the “AUC (zero to infinite time)” value [4, 9] was 1425.7 (78.8) nmol mL^−1 hr and the “CL (plasma clearance)” value [4, 9] was 0.71 (0.04) mL hr^−1. For the same substance, the Cmax [4, 9] was 667 µM, the “t1/2α (distribution half-life)” value [4, 9] was 0.46 (0.03) hr and the “t1/2β (elimination half-life)” value [4, 9] was 2.76 (0.42) hr. It also gave a tmax ([4]; i.p. single dose 100.0 nmol kg^−1, n = 3) of 30 min, a tmax ([4]; i.p. single dose 500.0 nmol kg^−1, n = 3) of 30 min and a tmax ([4]; i.p. single dose 1000.0 nmol kg^−1, n = 3) of 30 min. For the same substance, the “death or toxicity after peptide administration” value ([4]; rats, i.p. single dose of 100, 500 and 1,000 nmol kg^−1) was “None of the experimental rats died or exhibited toxicity” and the linearity of pharmacokinetics ([4]; single-dose range 100-1000 nmol kg^−1) was “linear pharmacokinetics”.
